Source: patent US12383631 (BRIGHT PEAK THERAPEUTICS, dated 2025)
Changes are numbered by the printed parent chain. Names and notes keep the numbering of the source.

T1: IL-18 receptor (IL-18Rα/IL-18Rβ) on cells (HEK-Blue IL18R reporter cells, NK-92, KG-1) (human, UniProt Q13478 19-541; O95256 20-599)
T1 sequence (looked up) 1: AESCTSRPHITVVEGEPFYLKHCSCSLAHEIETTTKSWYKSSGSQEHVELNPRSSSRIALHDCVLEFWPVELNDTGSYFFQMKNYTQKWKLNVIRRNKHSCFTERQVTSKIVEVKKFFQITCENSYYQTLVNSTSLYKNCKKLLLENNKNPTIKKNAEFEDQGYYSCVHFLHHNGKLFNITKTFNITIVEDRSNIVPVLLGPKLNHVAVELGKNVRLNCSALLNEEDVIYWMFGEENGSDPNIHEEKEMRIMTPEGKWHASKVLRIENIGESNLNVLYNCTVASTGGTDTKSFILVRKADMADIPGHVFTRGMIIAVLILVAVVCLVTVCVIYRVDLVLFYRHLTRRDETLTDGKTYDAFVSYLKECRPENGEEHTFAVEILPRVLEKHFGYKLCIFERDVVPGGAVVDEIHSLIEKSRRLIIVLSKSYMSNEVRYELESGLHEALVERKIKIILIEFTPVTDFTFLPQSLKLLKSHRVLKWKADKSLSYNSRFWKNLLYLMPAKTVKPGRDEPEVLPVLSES
T1 sequence (looked up) 2: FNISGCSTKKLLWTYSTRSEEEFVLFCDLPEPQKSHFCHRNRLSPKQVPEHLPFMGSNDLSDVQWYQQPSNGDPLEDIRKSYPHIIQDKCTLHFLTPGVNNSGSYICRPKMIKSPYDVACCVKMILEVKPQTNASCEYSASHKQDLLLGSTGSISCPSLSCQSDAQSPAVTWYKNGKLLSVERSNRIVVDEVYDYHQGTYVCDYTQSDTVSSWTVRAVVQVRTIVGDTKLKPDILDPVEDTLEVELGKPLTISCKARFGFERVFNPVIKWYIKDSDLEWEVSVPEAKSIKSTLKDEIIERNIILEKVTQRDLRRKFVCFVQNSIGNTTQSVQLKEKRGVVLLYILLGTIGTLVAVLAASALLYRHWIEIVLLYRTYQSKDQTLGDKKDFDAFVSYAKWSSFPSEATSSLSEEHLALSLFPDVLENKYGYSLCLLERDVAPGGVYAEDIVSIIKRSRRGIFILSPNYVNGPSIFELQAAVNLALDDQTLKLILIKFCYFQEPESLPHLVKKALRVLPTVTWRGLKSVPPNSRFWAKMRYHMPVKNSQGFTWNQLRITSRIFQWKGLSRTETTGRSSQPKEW

T2: human IL-18BP-His (human, UniProt O95998 31-194, limits assumed)
T2 construct: also called His-tagged human IL-18BP; not shown: His tag
T2 sequence (looked up): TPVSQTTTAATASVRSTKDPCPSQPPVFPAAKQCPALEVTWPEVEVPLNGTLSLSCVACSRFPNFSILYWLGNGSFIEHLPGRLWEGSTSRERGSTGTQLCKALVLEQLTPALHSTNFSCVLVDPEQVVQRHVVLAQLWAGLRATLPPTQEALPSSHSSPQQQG

B1: IL-18 polypeptide of SEQ ID NO: 43 (E06K, K53A, S55A, Y01G) (ligand)
chain: GFGKLKSKLSVIRNLNDQVLFIDQGNRPLFEDMTDSDCRDNAPRTIFIISMYADAQPRGMAVTISVKCEKISTLSCENKIISFKEMNPPDNIKDTKSDIIFFQRSVPGHDNKMQFESSSYEGYFLACEKERDLFKLILKKEDELGDRSIMFTVQNED
B2: IL-18 polypeptide of SEQ ID NO: 9 (E6K, C38A, K53A, C68A, D98C) (ligand)
chain: B1 chain with G1Y, C38A, A55S, C68A, D98C
B3: IL-18 polypeptide of SEQ ID NO: 4 (E6K, C38A, K53A, C68A, M86C) (ligand)
chain: B1 chain with G1Y, C38A, A55S, C68A, M86C
B4: IL-18 polypeptide of SEQ ID NO: 5 (E6K, V11I, C38A, K53A, T63A, C68A, C76A, M86C, C127A) (ligand)
chain: B1 chain with G1Y, V11I, C38A, A55S, T63A, C68A, C76A, M86C, C127A
B5: IL-18 polypeptide of SEQ ID NO: 6 (E6K, V11I, C38A, K53A, T63A, C68A, C76A, D98C, C127A) (ligand)
chain: B1 chain with G1Y, V11I, C38A, A55S, T63A, C68A, C76A, D98C, C127A
B6: IL-18 polypeptide of SEQ ID NO: 35 (Y01G, F02A, E06K, M51G, K53A, D54A, S55A, T63A) (ligand)
chain: B1 chain with F2A, M51G, D54A, T63A
B7: IL-18 polypeptide of SEQ ID NO: 46 (E06K, K53A, S55A, M51G) (ligand)
chain: B1 chain with G1Y, M51G
B8: IL-18 polypeptide of SEQ ID NO: 48 (C38S, C68S, C76S, C127S, K70C) (ligand)
chain: B1 chain with G1Y, K6E, C38S, A53K, A55S, C68S, K70C, C76S, C127S
B9: IL-18 polypeptide C145 (ligand)
chain: B1 chain with G1Y, K6E, V11I, C38A, C76A, C127A
notes: also called V11I, C38A, K53A, S55A, C76A, C127A
B10: IL-18 polypeptide of SEQ ID NO: 44 (E06K, K53A, S55A, F02A) (ligand)
chain: B1 chain with G1Y, F2A
B11: IL-18 polypeptide C143 (ligand)
chain: B1 chain with G1Y, K6E, V11I, C38A, A55S, C76A, C127A
notes: also called V11I, C38A, K53A, C76A, C127A
B12: IL-18 polypeptide of SEQ ID NO: 55 (K53A, T63A, C38S, C68S, C76S, C127S, K70C) (ligand)
chain: B1 chain with G1Y, K6E, C38S, A55S, T63A, C68S, K70C, C76S, C127S
B13: IL-18 polypeptide of SEQ ID NO: 47 (C38S, C68S, C76S, C127S) (ligand)
chain: B1 chain with G1Y, K6E, C38S, A53K, A55S, C68S, C76S, C127S
B14: IL-18 polypeptide of SEQ ID NO: 34 (E06K, K53A, S55A) (ligand)
chain: B1 chain with G1Y
B15: IL-18 polypeptide of SEQ ID NO: 49 (E06K, K53A, S55A, C38S, C68S, C76S, C127S, K70C) (ligand)
chain: B1 chain with G1Y, C38S, C68S, K70C, C76S, C127S
B16: IL-18 polypeptide of SEQ ID NO: 45 (E06K, K53A, S55A, D54A) (ligand)
chain: B1 chain with G1Y, D54A
B17: IL-18 polypeptide C146 (SEQ ID NO: 68) (ligand)
chain: B1 chain with G1Y, K6E, V11I, C38A, M51G, A55S, C76A, C127A
notes: also called V11I, C38A, M51G, K53A, C76A, C127A
B18: IL-18 polypeptide C144 (ligand)
chain: B1 chain with G1Y, K6E, V11I, C38A, A55S, T63A, C76A, C127A
notes: also called V11I, C38A, K53A, T63A, C76A, C127A
B19: IL-18 polypeptide C142 (ligand)
chain: B1 chain with G1M, V11I, C38A, A55S, T63A, C76A, C127A
notes: also called Y1M, E6K, V11I, C38A, K53A, T63A, C76A, C127A
B20: IL-18 polypeptide of SEQ ID NO: 56 (E6K, K53A, C38S, C76S, C127S) (ligand)
chain: B1 chain with G1Y, C38S, A55S, C76S, C127S
B21: IL-18 polypeptide C184 (ligand)
chain: B1 chain with G1Y, K6R, V11I, C38A, A55S, T63A, C76A, C127A
notes: also called E6R, V11I, C38A, K53A, T63A, C76A, C127A
B22: IL-18 polypeptide C176 (ligand)
chain: B1 chain with G1Y, V11I, C38A, I49M, A55S, T63A, C76A, C127A
notes: also called E6K, V11I, C38A, I49M, K53A, T63A, C76A, C127A
B23: IL-18 polypeptide C174 (ligand)
chain: B1 chain with G1Y, K8L, V11I, C38A, A55S, T63A, C76A, C127A
notes: also called K8L, E6K, V11I, C38A, K53A, T63A, C76A, C127A
B24: IL-18 polypeptide C140 (SEQ ID NO: 72) (ligand)
chain: GGGGYFGKLKSKLSIIRNLNDQVLFIDQGNRPLFEDMTDSDARDNAPRTIFIISMYADSQPRGMAVAISVKCEKISTLSAENKIISFKEMNPPDNIKDTKSDIIFFQRSVPGHDNKMQFESSSYEGYFLAAEKERDLFKLILKKEDELGDRSIMFTVQNED
B25: IL-18 polypeptide C141 (SEQ ID NO: 71) (ligand)
chain: GYFGKLKSKLSIIRNLNDQVLFIDQGNRPLFEDMTDSDARDNAPRTIFIISMYADSQPRGMAVAISVKCEKISTLSAENKIISFKEMNPPDNIKDTKSDIIFFQRSVPGHDNKMQFESSSYEGYFLAAEKERDLFKLILKKEDELGDRSIMFTVQNED
B26: IL-18 polypeptide C192 (SEQ ID NO: 70) (ligand)
chain: B25 chain with M52G
B27: IL-18 polypeptide C182 (ligand)
chain: B1 chain with G1Y, V11I, C38A, A55S, T63A, C76A, C127A, V153Y
B28: IL-18 polypeptide C177 (ligand)
chain: B1 chain with G1Y, V11I, C38A, I49R, A55S, T63A, C76A, C127A
B29: IL-18 polypeptide C178 (ligand)
chain: B1 chain with G1Y, V11I, C38A, A55S, T63A, C76A, Q103R, C127A
B30: IL-18 polypeptide C179 (ligand)
chain: B1 chain with G1Y, K8E, V11I, C38A, A55S, T63A, C76A, Q103R, C127A
B31: IL-18 polypeptide C183 (SEQ ID NO: 69) (ligand)
chain: B1 chain with G1Y, V11I, C38A, M51G, A55S, T63A, C76A, C127A
B32: IL-18 polypeptide C181 (ligand)
chain: B1 chain with G1Y, V11I, C38A, A55S, T63A, C76A, C127A, V153E

target: T1, IL-18 receptor (IL-18Rα/IL-18Rβ) on …; experiment: cell-based or functional assay

| Binder | EC50, IFNγ stimulation, NK92 cells [nM] |
| --- | --- |
| B1 | 6.12 |
| B2 | 0.069 |
| B3 | 0.022 |
| B4 | 0.075 |
| B5 | 1.37 |
| B6 | > 55 |
| B7 | 7.4 |
| B8 | 0.488 |
| B9 | 0.087 |
| B10 | > 1000 |
| B11 | 0.138 |
| B12 | 17.2 |
| B13 | 0.115 |
| B14 | 0.824 |
| B15 | 58.5 |
| B16 | 30 |
| B17 | 0.037 |
| B18 | 0.012 |

target: T2, human IL-18BP-His; experiment: AlphaLISA of free IL-18BP
Description: The plate is incubated further for 1 hr at room temperature. Under subdued light, 12.5 µL of 2× streptavidin (SA) donor beads are pipetted into each well, and the wells are incubated with shaking for an additional 30 min at room temperature. The AlphaLisa signal is then measured on an Enspire plate reader with 680 and 615 nm as excitation and emission wavelengths, respectively. The dissociation constant (K_D) is calculated based on a variable slope, four parameter analysis using GraphPad PRISM software.

| Binder | Kd [nM] |
| --- | --- |
| B19 | 2.25 |
| B8 | 0.21 |
| B20 | 436 |
| B21 | 5.46 |
| B9 | 9.74 |
| B11 | 8.86 |
| B12 | 913 |
| B13 | 0.03 |
| B22 | 25.8 |
| B23 | 0.14 |
| B17 | 373 |
| B18 | 0.66 |

target: T1, IL-18 receptor (IL-18Rα/IL-18Rβ) on …; experiment: cell-based or functional assay; remark: another data set of the same source

| Binder | EC50, HEK-Blue IL18R reporter cells [pM] |
| --- | --- |
| B24 | 2.5 |
| B25 | 1.68 |
| B26 | 14 |
| B19 | 0.02 |
| B27 | 0.08 |
| B28 | 0.04 |
| B29 | 0.26 |
| B20 | 3.73 |
| B21 | 0.04 |
| B30 | 0.4 |
| B9 | 3.63 |
| B11 | 0.98 |
| B14 | 272 |
| B22 | 0.07 |
| B23 | 0.29 |
| B31 | 0.1 |
| B32 | 0.1 |
| B17 | 0.8 |
| B18 | 0.17 |
